B1: REGN5838 (CD22 arm) (antibody, V domains shown)
VH: EVQLVESGGGLVQPGGSLKLSCAASGFTFSGSDMHWVRQASGKGLEWVGRIRNQPNSYATAYAASVKGRFTISRDDSKNTAHLQMNSLKTEDTAVYFCTRQKQVVYNYHHYYGMDVWGQGTTVTVSS
VL: not shown
B2: REGN5837 (CD22 arm) (antibody, V domains shown)
VH: EVQLVQSGAEVKKPGESLKISCKGSGYNFATYWIAWVRQMPGKGLELMGIIYPGDSETTYNPSFQGQVTISADKSISNAYLQWSSLKASDTAMYYCARVGGYCSGTSCHNWFDPWGLGTLVTVSS
VL: not shown
B3: REGN5838 (CD28 arm) (antibody, V domains shown)
VH: QVQLQESGPGLVKPSETLSLTCTVSGGSISSYYWSWIRQPPGKGLEWIGYIYYSGITHYNPSLKSRVTISVDTSKIQFSLKLSSVTAADTAVYYCARWGVRRDYYYYGMDVWGQGTTVTVSS
VL: not shown
B4: REGN5837 (CD28 arm) (antibody, V domains shown)
VH: B3 VH
VL: not shown

Key:
[1] = target: T1, human CD22 (cell surface) (human, UniProt P20273); assay: FACS, Nalm6
[2] = target: T1, human CD22 (cell surface); assay: FACS, HEK293/hCD20/hCD22
[3] = target: T1, human CD22 (cell surface); assay: FACS, Raji/CD80 and CD86 negative
hCD28.mmH = hCD28.mmH (human); assay: SPR, 25C
[4] = target: human CD28 (cell surface) (human, UniProt P10747); assay: FACS, Jurkat

| Binder | EC50 [1] [nM] | EC50 [2] [nM] | EC50 [3] [nM] | Kd (hCD28.mmH) [nM] | EC50 [4] [nM] |
| --- | --- | --- | --- | --- | --- |
| B1 | 18 | 11.4 | 14.9 |  |  |
| B2 | 13 |  | 9.76 |  |  |
| B3 |  |  |  | 404 | 23 |
| B4 |  |  |  |  | 21 |
